Legend:
[1] = biological target: MtCNNMΔC R235L (Methanoculleus thermophilus); experiment: crystal structure
[2] = biological target: MtCNNMΔC_(Δloop) (Methanoculleus thermophilus CNNM, residues 1-322 Δ259-262) (Methanoculleus thermophilus); experiment: crystal structure

stoichiometry N [1]	stoichiometry N [2]	Substance
2	–	MtCNNMΔC R235L (domain or fragment)
–	2	MtCNNMΔC_(Δloop) (Methanoculleus thermophilus CNNM, residues 1-322 Δ259-262) (domain or fragment)
